# Experimental data reported in PMC4762007, “Insight into Coenzyme A cofactor binding and the mechanism of acyl-transfer in an acylating aldehyde dehydrogenase from Clostridium phytofermentans” (Scientific Reports, 2016).
# T1: Cphy1178(20–462) (Lachnoclostridium phytofermentans, UniProt A9KN57)
# T1 construct: gene Cphy_1178; E. coli BL21(DE3), pET28a; tag state not clearly stated; tetramer 4 x 47,452 Da; also misprinted as 20-426
# T1 sequence (A9KN57 20-462): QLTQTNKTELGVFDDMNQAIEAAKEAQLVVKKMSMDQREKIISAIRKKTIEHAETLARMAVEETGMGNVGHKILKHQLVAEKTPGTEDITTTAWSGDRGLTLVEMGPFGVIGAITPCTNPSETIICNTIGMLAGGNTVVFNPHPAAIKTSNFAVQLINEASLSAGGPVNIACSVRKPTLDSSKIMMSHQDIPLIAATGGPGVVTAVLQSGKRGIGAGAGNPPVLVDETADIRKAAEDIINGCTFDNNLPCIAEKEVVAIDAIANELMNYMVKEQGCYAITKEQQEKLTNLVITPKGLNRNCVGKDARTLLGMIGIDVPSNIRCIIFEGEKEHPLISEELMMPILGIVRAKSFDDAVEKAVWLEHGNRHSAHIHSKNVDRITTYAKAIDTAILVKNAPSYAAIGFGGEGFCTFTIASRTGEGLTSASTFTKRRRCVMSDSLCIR
# What was measured:
# Cphy1178(20–462) [1] = biological target: T1, Cphy1178(20–462); assay: NADH formation; assay type: biochemical; details: substrate inhibition; 0.66 mM NAD+, 100 mM KCl, 10 mM 2-mercaptoethanol, no CoA, pH 8.0, 21 °C
# Cphy1178(20–462) [2] = biological target: T1, Cphy1178(20–462); assay: LC-MS; assay type: biochemical; details: 100 µM CoA, 75 µM NAD+, 10 mM propionaldehyde, 100 mM KCl, pH 8.0, room temperature
# Cphy1178(20–462) [3] = biological target: T1, Cphy1178(20–462); assay: LC-MS detection of propionyl-CoA; assay type: biochemical; details: 100 µM CoA, 75 µM NAD+, 10 mM propionaldehyde, 100 mM KCl, pH 8.0, room temperature
# [4] = biological target: Cphy1178(20–462), acylating aldehyde dehydrogenase from the Clostridium phytofermentans fucose/rhamnose utilisation BMC, N-terminal truncation (Clostridium phytofermentans); assay: native MS; solution-phase disassembly: tetramer disrupted by addition of 40% methanol (v/v) prior to MS analysis; tetramer to dimers and monomers
# [5] = biological target: Cphy1178(20–462), acylating aldehyde dehydrogenase from the Clostridium phytofermentans fucose/rhamnose utilisation BMC, N-terminal truncation (Clostridium phytofermentans); assay: crystal structure; X-ray, space group I 41 2 2, one chain in the asymmetric unit; tetramer generated by crystal symmetry (D2); crystals from 0.1 M sodium acetate pH 4.7, 1.8 M ammonium sulphate, soaked with 10 mM NAD+
# [6] = biological target: Cphy1178(20–462), acylating aldehyde dehydrogenase from the Clostridium phytofermentans fucose/rhamnose utilisation BMC, N-terminal truncation (Clostridium phytofermentans); assay: native MS; nano-ESI ion-mobility MS (Synapt G2); protein buffer-exchanged into 100 mM ammonium acetate pH 7.0; tetramer
# purified protein [7] = substrate: CCCCCC=O; assay: purified protein; details: 0.66 mM NAD+, 100 mM KCl, 10 mM 2-mercaptoethanol, no CoA, pH 8.0, 21 °C
# purified protein [8] = substrate: CC=O; assay: purified protein; assay type: biochemical, Lachnoclostridium phytofermentans; details: 0.66 mM NAD+, 100 mM KCl, 10 mM 2-mercaptoethanol, no CoA, pH 8.0, 21 °C
# purified protein [9] = substrate: CCCCC=O; assay: purified protein; assay type: biochemical, Lachnoclostridium phytofermentans; details: 0.66 mM NAD+, 100 mM KCl, 10 mM 2-mercaptoethanol, no CoA, pH 8.0, 21 °C
# purified protein [10] = substrate: CCCC=O; assay: purified protein; assay type: biochemical, Lachnoclostridium phytofermentans; details: 0.66 mM NAD+, 100 mM KCl, 10 mM 2-mercaptoethanol, no CoA, pH 8.0, 21 °C
# purified protein [11] = substrate: CCC=O; assay: purified protein; assay type: biochemical, Lachnoclostridium phytofermentans; details: 0.66 mM NAD+, 100 mM KCl, 10 mM 2-mercaptoethanol, no CoA, pH 8.0, 21 °C
molecule,measurement,setting,value
CCC=O [Propionaldehyde],Ki,Cphy1178(20–462) [1],17.31 ± 0.46 mM
CCC(=O)SCCNC(=O)CCNC(=O)[C@H](O)C(C)(C)COP(=O)(O)OP(=O)(O)OC[C@H]1O[C@@H](n2cnc3c(N)ncnc32)[C@H](O)[C@@H]1OP(=O)(O)O [propionyl-CoA],LC-MS,Cphy1178(20–462) [2],LC-MS analysis confirmed the presence of the propionyl-CoA product
CCCCCC=O [Hexanaldehyde],Ki,Cphy1178(20–462) [1],23.52 ± 1.28 mM
CC(C)(COP(=O)(O)OP(=O)(O)OC[C@H]1O[C@@H](n2cnc3c(N)ncnc32)[C@H](O)[C@@H]1OP(=O)(O)O)[C@@H](O)C(=O)NCCC(=O)NCCS [CoA],LC-MS detection of propionyl-CoA,Cphy1178(20–462) [3],reaction mixtures containing NAD^+ and CoA
"Cphy1178(20–462), acylating aldehyde dehydrogenase from the Clostridium phytofermentans fucose/rhamnose utilisation BMC, N-terminal truncation (enzyme)",stoichiometry N,[4],2
same,stoichiometry N,[5],4
same,stoichiometry N,[6],4
CCCCC=O [Pentanaldehyde],Ki,Cphy1178(20–462) [1],12.61 ± 0.46 mM
"Cphy1178(20–462) (Lachnoclostridium phytofermentans ISDg) (protein, E. coli BL21(DE3), pET28a; tag state not clearly stated; tetramer 4 x 47,452 Da; also misprinted as 20-426) QLTQTNKTELGVFDDMNQAIEAAKEAQLVVKKMSMDQREKIISAIRKKTIEHAETLARMAVEETGMGNVGHKILKHQLVAEKTPGTEDITTTAWSGDRGLTLVEMGPFGVIGAITPCTNPSETIICNTIGMLAGGNTVVFNPHPAAIKTSNFAVQLINEASLSAGGPVNIACSVRKPTLDSSKIMMSHQDIPLIAATGGPGVVTAVLQSGKRGIGAGAGNPPVLVDETADIRKAAEDIINGCTFDNNLPCIAEKEVVAIDAIANELMNYMVKEQGCYAITKEQQEKLTNLVITPKGLNRNCVGKDARTLLGMIGIDVPSNIRCIIFEGEKEHPLISEELMMPILGIVRAKSFDDAVEKAVWLEHGNRHSAHIHSKNVDRITTYAKAIDTAILVKNAPSYAAIGFGGEGFCTFTIASRTGEGLTSASTFTKRRRCVMSDSLCIR",Km,purified protein [7],2900 ± 100 µM
same,kcat,purified protein [7],5.61 s⁻¹
same,kcat/Km,purified protein [7],1930 M⁻¹ s⁻¹
same,Km,purified protein [8],5160 ± 100 µM
same,kcat,purified protein [8],1.62 ± 0.02 s⁻¹
same,kcat/Km,purified protein [8],310 M⁻¹ s⁻¹
same,Km,purified protein [9],2200 ± 700 µM
same,kcat,purified protein [9],5.44 ± 0.1 s⁻¹
same,kcat/Km,purified protein [9],2470 M⁻¹ s⁻¹
same,Km,purified protein [10],1740 ± 70 µM
same,kcat,purified protein [10],3.44 ± 0.7 s⁻¹
same,kcat/Km,purified protein [10],1980 M⁻¹ s⁻¹
same,Km,purified protein [11],820 ± 20 µM
same,kcat,purified protein [11],3.45 ± 0.03 s⁻¹
same,kcat/Km,purified protein [11],4210 M⁻¹ s⁻¹
